These are literature values, as cited in paper PMC5662687.

For orientation: Kd means a measure of binding affinity in units of concentration.

In this series the target is ICAM-1 (Homo sapiens) (UniProt P05362).
Sequence of ICAM-1 (Homo sapiens) (P05362 28-480): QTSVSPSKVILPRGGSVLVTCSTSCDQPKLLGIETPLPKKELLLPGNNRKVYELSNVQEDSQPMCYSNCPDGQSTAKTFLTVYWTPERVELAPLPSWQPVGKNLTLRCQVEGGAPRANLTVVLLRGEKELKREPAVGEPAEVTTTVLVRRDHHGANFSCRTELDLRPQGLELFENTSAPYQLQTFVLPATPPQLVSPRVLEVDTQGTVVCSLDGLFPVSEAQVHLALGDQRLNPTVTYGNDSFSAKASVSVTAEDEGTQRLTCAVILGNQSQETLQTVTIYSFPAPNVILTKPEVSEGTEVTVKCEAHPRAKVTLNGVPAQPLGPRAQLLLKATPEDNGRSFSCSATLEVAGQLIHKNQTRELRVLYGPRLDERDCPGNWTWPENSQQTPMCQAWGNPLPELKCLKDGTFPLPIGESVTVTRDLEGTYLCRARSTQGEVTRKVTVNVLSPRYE

Sequence of LFA-1 (P20701 26-1090): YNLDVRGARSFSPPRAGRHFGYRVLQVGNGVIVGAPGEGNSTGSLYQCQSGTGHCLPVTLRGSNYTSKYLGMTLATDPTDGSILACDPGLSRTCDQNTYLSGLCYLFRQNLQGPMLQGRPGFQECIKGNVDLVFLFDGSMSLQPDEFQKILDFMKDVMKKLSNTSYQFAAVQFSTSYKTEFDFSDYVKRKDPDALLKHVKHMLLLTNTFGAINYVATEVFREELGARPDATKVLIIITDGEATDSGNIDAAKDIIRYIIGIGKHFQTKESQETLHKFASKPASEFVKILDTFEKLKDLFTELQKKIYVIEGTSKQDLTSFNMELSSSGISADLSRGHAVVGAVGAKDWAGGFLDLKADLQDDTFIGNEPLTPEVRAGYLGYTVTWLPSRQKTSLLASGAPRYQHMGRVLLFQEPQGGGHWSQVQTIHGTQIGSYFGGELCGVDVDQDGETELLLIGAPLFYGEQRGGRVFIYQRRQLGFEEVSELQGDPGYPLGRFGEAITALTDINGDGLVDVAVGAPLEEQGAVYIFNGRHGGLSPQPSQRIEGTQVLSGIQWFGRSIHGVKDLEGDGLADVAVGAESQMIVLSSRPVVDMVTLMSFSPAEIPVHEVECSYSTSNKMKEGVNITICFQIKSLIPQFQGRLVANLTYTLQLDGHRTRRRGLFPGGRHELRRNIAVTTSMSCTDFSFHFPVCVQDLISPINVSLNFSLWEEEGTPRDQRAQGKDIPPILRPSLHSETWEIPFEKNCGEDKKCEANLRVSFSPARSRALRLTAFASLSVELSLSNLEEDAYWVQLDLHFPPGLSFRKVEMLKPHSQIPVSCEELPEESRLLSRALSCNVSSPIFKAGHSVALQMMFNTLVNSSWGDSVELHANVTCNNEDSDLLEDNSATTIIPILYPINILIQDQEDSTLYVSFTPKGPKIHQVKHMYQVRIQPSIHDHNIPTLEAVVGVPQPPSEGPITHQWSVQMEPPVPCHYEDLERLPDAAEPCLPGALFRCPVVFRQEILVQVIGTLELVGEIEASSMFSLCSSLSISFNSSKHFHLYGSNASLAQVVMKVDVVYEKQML
Sequence of LFA-1 (P05107 23-700, further chain): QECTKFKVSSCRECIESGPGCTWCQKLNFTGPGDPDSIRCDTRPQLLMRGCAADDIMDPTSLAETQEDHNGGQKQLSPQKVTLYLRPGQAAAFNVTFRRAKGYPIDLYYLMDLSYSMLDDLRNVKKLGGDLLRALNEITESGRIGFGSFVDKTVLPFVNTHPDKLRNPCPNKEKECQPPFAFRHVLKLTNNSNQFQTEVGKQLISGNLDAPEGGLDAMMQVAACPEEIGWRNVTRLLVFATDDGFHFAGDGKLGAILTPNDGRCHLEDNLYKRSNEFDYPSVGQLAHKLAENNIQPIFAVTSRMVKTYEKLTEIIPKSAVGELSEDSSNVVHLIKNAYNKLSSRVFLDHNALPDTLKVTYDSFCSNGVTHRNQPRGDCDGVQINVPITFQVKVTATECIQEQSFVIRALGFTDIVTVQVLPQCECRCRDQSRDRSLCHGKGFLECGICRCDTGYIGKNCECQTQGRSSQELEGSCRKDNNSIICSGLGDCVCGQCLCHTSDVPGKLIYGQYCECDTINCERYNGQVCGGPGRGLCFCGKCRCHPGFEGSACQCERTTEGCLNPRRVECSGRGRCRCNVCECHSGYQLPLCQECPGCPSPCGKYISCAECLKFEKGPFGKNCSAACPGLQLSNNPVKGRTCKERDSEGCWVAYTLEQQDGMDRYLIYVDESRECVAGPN

For LFA-1 (from UniProt P20701), the Kd is 1 mM.
